The values that follow come from patent publication CN110964118A (UNIV CHINA PHARMA, dated 2020).

In assay [1] the target is 转化生长因子-β1 (TGF-β1) (human, UniProt P01137 279-390). The experiment in a line: SPR (Biacore X100), cG7-sTGFBR2 captured by anti-human IgG(Fc) on a CM5 chip, TGF-β1 as analyte, 25℃.
The target of assay [2] is T1, CD24裸肽 (CD24 naked peptide, SPR analyte) (human, UniProt P25063 27-59, limits assumed).
T1 construct: also called 抗原CD24
T1 peptide (looked up): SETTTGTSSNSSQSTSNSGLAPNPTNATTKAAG
The experiment in a line: SPR (Biacore X100), cG7-sTGFBR2 captured by anti-human IgG(Fc) on a CM5 chip, CD24 naked peptide as analyte, 25℃.

转化生长因子-β1 (TGF-β1), sequence (P01137 279-390 limits assumed): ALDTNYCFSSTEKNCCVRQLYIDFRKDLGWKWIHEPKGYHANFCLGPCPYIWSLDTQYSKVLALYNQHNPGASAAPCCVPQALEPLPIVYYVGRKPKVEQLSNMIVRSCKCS

B1: 靶向CD24的双特异性融合抗体cG7-sTGFBR2 (anti-CD24 humanized chimeric antibody cG7 fused at the heavy chain C-terminus via Gly4Ser to the human TGFBR2 extracellular domain … (bispecific antibody, human IgG1, kappa)
heavy: not shown
light: DIVMTQTPLSLSVTIGQPASISCKSSQSLLHSDGKTYLNWLLQRPGQSPKRLIYLVSKLDSGVPDRFTGSGSGTDFTLKVSRVEAEDLGVYYCWQGAHFPYTFGGGTKLEIKVDTVAAPSVFIFPPSDEQLKSGTASVVCLLNNFYPREAKVQWKVDNALQSGNSQESVTEQDSKDSTYSLSSTLTLSKADYEKHKVYACEVTHQGLSSPVTKSFNRGEC
notes: also called 融合双特异性抗体cG7-sTGFBR2
Consider B1, for which, in assay [1], the dissociation constant Kd amounted to 55.5 nM, the koff is 0.0636 s⁻¹ and the on-rate (kon) worked out at 1.15e+06 M⁻¹ s⁻¹. In assay [2], this molecule registered an equilibrium dissociation constant (Kd) of 0.122 nM, a koff of 1.14e-05 s⁻¹ and a kon of 93700 M⁻¹ s⁻¹.
